Patent publication US20190032056

Tests used:
[1] = target: complement Factor D (fD) in C1q-depleted human serum (Homo sapiens) (UniProt P00746); experiment: inhibition; details: hemolysis; non-specific control oligo
[2] = target: complement Factor D (fD) (Homo sapiens) (UniProt P00746); experiment: inhibition; details: control oligo
[3] = target: complement Factor D (fD) (Homo sapiens) (UniProt P00746); experiment: flow; details: 2'-F G, 2'-OMe A,C,U, 37 C
[4] = SB1T, 100 nM AFD Fab reduces signal about 75-90%

complement Factor D (fD) (Homo sapiens), sequence (P00746 26-253): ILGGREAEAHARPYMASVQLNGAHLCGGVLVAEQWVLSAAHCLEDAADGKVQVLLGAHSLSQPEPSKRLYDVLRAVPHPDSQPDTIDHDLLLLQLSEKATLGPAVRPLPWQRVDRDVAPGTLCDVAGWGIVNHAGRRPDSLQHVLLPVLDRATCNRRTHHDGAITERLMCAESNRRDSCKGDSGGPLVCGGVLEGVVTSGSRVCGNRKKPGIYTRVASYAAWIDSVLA
complement Factor D (fD) in C1q-depleted human serum (Homo sapiens), sequence (P00746 26-253): as above

Question: With C8 non-specific control oligo as the substance, how does the IC50 [1] read?
Answer: > 160 nM

Question: And the activity (% esterase activity) [2]?
Answer: 105

Question: How did the Kd ([3]; SB1T with BSA and ssDNA, bead-immobilized fD) turn out when “GGGAGUGUGUACGAGGCAUUAGGCCGCCNNNNNNNNNNNNNNNNNNNNNNNNNNNNNNGGCGGCUUUGAUACUUGAUCGCCCUAGAAGC [N30S library round 6]” was run?
Answer: 34.4 nM

Question: Which Kd [3, 4] does the source give for “GGGAGUGUGUACGAGGCAUUAGGCCGCCNNNNNNNNNNNNNNNNNNNNNNNNNNNNNNGGCGGCUUUGAUACUUGAUCGCCCUAGAAGC [N30S library round 7]” here?
Answer: 45.1 nM

Question: How did the Kd [3, 4] turn out when “GGGAGUGUGUACGAGGCAUUAGGCCGCCNNNNNNNNNNNNNNNNNNNNNNNNNNNNNNGGCGGCUUUGAUACUUGAUCGCCCUAGAAGC [N30S library round 8]” was run?
Answer: 8.8 nM
